Data from patent US20210355194A1 (TWIST BIOSCIENCE, published 2021).

B1: variant 6-72 (Fc fusion)
VHH: EVQLVESGGGLVQPGGSLRLSCAASGSTLSINAMGWFRQAPGKEREFVAAIDWSGGSTAYADSVKGRFTISADNSKNTAYLQMNSLKPEDTAVYYCARDSSATRTGPDYWGQGTLVTVSS
B2: variant 6-82 (Fc fusion)
VHH: EVQLVESGGGLVQPGGSLRLSCAASGSSLDAYGMGWFRQAPGKEREFVAAISWGGGSIYYADSVKGRFTISADNSKNTAYLQMNSLKPEDTAVYYCARLSQGMVALDYWGQGTLVTVSS
B3: variant 6-75 (Fc fusion)
VHH: EVQLVESGGGLVQPGGSLRLSCAASGGTFSTYWMGWFRQAPGKEREFVAAISRSGGNTYYADSVKGRFTISADNSKNTAYLQMNSLKPEDTAVYYCVRHSGTDGDSSFDYWGQGTLVTVSS
B4: variant 6-99 (Fc fusion)
VHH: EVQLVESGGGLVQPGGSLRLSCAASGIPFRSRTMGWFRQAPGKEREFVAGISRSGASTAYADSVKGRFTISADNSKNTAYLQMNSLKPEDTAVYYCTHANDYGDYWGQGTLVTVSS
B5: variant 6-78 (Fc fusion)
VHH: EVQLVESGGGLVQPGGSLRLSCAASGRTYDAMGWFRQAPGKEREFVASVTSGGYTHYADSVKGRFTISADNSKNTAYLQMNSLKPEDTAVYYCAKFGRKIVGATELDYWGQGTLVTVSS
notes: VHH-Fc
B6: variant 6-108 (Fc fusion)
VHH: EVQLVESGGGLVQPGGSLRLSCAASGGTFGSYGMGWFRQAPGKEREFVAAIRWSGGITYYADSVKGRFTISADNSKNTAYLQMNSLKPEDTAVYYCARERYWNPLPYYYYGMDVWGQGTLVTVSS
B7: variant 6-95 (Fc fusion)
VHH: EVQLVESGGGLVQPGGSLRLSCAASGIPSSIRAMGWFRQAPGKEREFVAVIRWTGGSTYYADSVKGRFTISADNSKNTAYLQMNSLKPEDTAVYYCARDIGYYDSSGYYNDGGFDYWGQGTLVTVSS
B8: variant 6-70 (Fc fusion)
VHH: EVQLVESGGGLVQPGGSLRLSCAASGFNLDDYADMGWFRQAPGKEREFVAAIGWGGGSTRYADSVKGRFTISADNSKNTAYLQMNSLKPEDTAVYYCAREILWFGEFGEPNVWGQGTLVTVSS
B9: variant 6-112 (Fc fusion)
VHH: EVQLVESGGGLVQPGGSLRLSCAASGGTFSAYHMGWFRQAPGKERELVTIIDNGGPTSYADSVKGRFTISADNSKNTAYLQMNSLKPEDTAVYYCTALLYYFDNSGYNFDPFDIWGQGTLVTGSS
B10: variant 6-106 (Fc fusion)
VHH: EVQLVESGGGLVQPGGSLRLSCAASGIPSTLRAMGWFRQAPGKEREFVAATSWSGGSKYYADSVKGRFTISADNSKNTAYLQMNSLKPEDTAVYYCATDLYYMDVWGQGTLVTVSS
B11: variant 6-68 (Fc fusion)
VHH: EVQLVESGGGLVQPGGSLRLSCAASGFTLSDRAMGWFRQAPGKEREYVAHITAGGLSNYADSVKGRFTISADNSKNTAYLQMNSLKPEDTAVYYCVHLASQTGAGYFDLWGQGTLVTVSS
B12: variant 6-103 (Fc fusion)
VHH: EVQLVESGGGLVQPGGSLRLSCAASGRTSSPIAMGWFRQAPGKEREPVAVRWSDDYTYYADSVKGRFTISADNSKNTAYLQMNSLKPEDTAVYYCAKKLGGYYAFDIWGQGTLVTVSS
B13: variant 6-73 (Fc fusion)
VHH: EVQLVESGGGLVQPGGSLRLSCAASGHTFSGYAMGWFRQAPGKEREFVAVITREGSTYYADSVKGRFTISADNSKNTAYLQMNSLKPEDTAVYYCARLGGEGFDYWGQGTLVTVSS
notes: VHH-Fc
B14: variant 6-76 (Fc fusion)
VHH: EVQLVESGGGLVQPGGSLRLSCAASGLAFDFDGMGWFRQAPGKEREGVAAINSGGSTYYADSVKGRFTISADNSKNTAYLQMNSLKPEDTAVYYCARFFRAHDYWGQGTLVTVSS
notes: VHH-Fc
B15: variant 6-102 (Fc fusion)
VHH: EVQLVESGGGLVQPGGSLRLSCAASGSSFSAYAMGWFRQAPGKEREFVSAIDSEGTTTYADSVKGRFTISADNSKNTAYLQMNSLKPEDTAVYYCAGDYNFWSGFDHWGQGTLVTVSS
B16: variant 6-90 (Fc fusion)
VHH: EVQLVESGGGLVQPGGSLRLSCAASGFPFSIWPMGWFRQAPGKEREFVAAVRWSSTYYADSVKGRFTISADNSKNTAYLQMNSLKPEDTAVYYCATGECDGGSCSLAYWGQGTLVTVSS
B17: variant 6-67 (Fc fusion)
VHH: EVQLVESGGGLVQPGGSLRLSCAASGSFSNYAMGWFRQAPGKEREFVAAISSSGALTSYADSVKGRFTISADNSKNTAYLQMNSLKPEDTAVYYCWIVGPGPLDGMDVWGQGTLVTVSS
B18: variant 6-84 (Fc fusion)
VHH: EVQLVESGGGLVQPGGSLRLSCAASGFTPDDYAMGWFRQAPGKEREFVAAINSGGSYTYYADSVKGRFTISADNSKNTAYLQMNSLKPEDTAVYYCARDRGPWGQGTLVTVSS
B19: variant 6-71 (Fc fusion)
VHH: EVQLVESGGGLVQPGGSLRLSCAASGITFSNDAMGWFRQAPGKEREFVAIITSSDTNDTTNYADSVKGRFTISADNSKNTAYLQMNSLKPEDTAVYYCARLHYYDSSGYFDYWGQGTLVTVSS
B20: variant 6-74 (Fc fusion)
VHH: EVQLVESGGGLVQPGGSLRLSCAASGFAFGDSWMGWFRQAPGKERELVAAITSGGSTDYADSVKGRFTISADNSKNTAYLQMNSLKPEDTAVYYCARGLLWFGELFGYWGQGTLVTVSS
B21: variant 6-97 (Fc fusion)
VHH: EVQLVESGGGLVQPGGSLRLSCAASGFTFSSLAMGWFRQAPGKEREFVAAITWSGDITNYADSVKGRFTITADNSKNTAYLQMNSLKPEDTAVYYCLRLSSSGFDHWGQGTLVTVSS
B22: variant 6-39 (Fc fusion)
VHH: EVQLVESGGGLVQPGGSLRLSCAASGFTFSPSWMGWFRQAPGKEREFVAAISWSGGSTAYADSVKGRFTISADNSKNTAYLQMNSLKPEDTAVYYCHGLGEGDPYGDYEGYFDLWGQGTLVTVSS
B23: variant 6-82 (Fc fusion)
VHH: EVQLVESGGGLVQPGGSLRLSCAASGSSLDAYGMGWFRQAPGKEREFVAAISWGGGSIYYADSVKGRFTISADNSKNTAYLQMNSLKPEDTAVYYCARLSQGMVALDYWGQGTLVTVSS
B24: variant 6-6 (Fc fusion)
VHH: EVQLVESGGGLVQPGGSLRLSCAASGTTLDYYAMGWFRQAPGKERELVAAISWSGGSTAYADSVKGRFTISADNSKNTAYLQMNSLKPEDTAVYYCAREDYYDSSGYSWGQGTLVTVSS
B25: variant 5-1 (Fc fusion)
VHH: EVQLVESGGGLVQPGGSLRLSCAASGGTFSSIGMGWFRQAPGKEREFVAAISWDGGATAYADSVKGRFTISADNSKNTAYLQMNSLKPEDTAVYYCAKEDVGKPFDWGQGTLVTVSS
B26: variant 6-45 (Fc fusion)
VHH: EVQLVESGGGLVQPGGSLRLSCAASGNMFSINAMGWFRQAPGKEREFVTLISWSSGRTSYADSVKGRFTISADNSKNTAYLQMNSLKPEDTAVYYCASLGYCSGGSCFDYWGQGTLVTVSS
B27: variant 6-42 (Fc fusion)
VHH: EVQLVESGGGLVQPGGSLRLSCAASGDTYGSYWMGWFRQAPGKEREFVAVITSGGSTNYADSVKGRFTISADNSKNTAYLQMNSLKPEDTAVYYCTHVQNSYYYAMDVWGQGTLVTVSS
B28: variant 6-26 (Fc fusion)
VHH: EVQLVESGGGLVQPGGSLRLSCAASGDTFSTSWMGWFRQAPGKEREFVATINTGGGTNYADSVKGRFTISADNSKNTAYLQMNSLKPEDTAVYYCARVTTSFDYWGQGTLVTVSS
B29: variant 6-77 (Fc fusion)
VHH: EVQLVESGGGLVQPGGSLRLSCAASGFTFDRSWMGWFRQAPGKEREFVAAVTEGGTTSYADSVKGRFTISADNSKNTAYLQMNSLKPEDTAVYYCARADYDFDYWGQGTLVTVSS
B30: variant 6-30 (Fc fusion)
VHH: EVQLVESGGGLVQPGGSLRLSCAASGFAFGDSWMGWFRQAPGKEREFVATINWSGVTAYADSVKGRFTISADNSKNTAYLQMNSLKPEDTAVYYCARADGYFDYWGQGTLVTVSS
B31: variant 5-63 (Fc fusion)
VHH: EVQLVESGGGLVQPGGSLRLSCAASGFSLDYYDMGWFRQAPGKEREFVAALGWSGGSTDYADSVKGRFTISADNSKNTAYLQMNSLKPEDTAVYYCAAGNGGRYGIVERWGQGTLVTVSS
B32: variant 6-43 (Fc fusion)
VHH: EVQLVESGGGLVQPGGSLRLSCAASGRTFSSYAMMGWFRQAPGKEREFVASVNWDASQINYADSVKGRFTISADNSKNTAYLQMNSLKPEDTAVYYCTTLGAVYFDSSGYHDYFDYWGQGTLVTVSS
B33: variant 6-44 (Fc fusion)
VHH: EVQLVESGGGLVQPGGSLRLSCAASGGTFGVYHMGWFRQAPGKEREFIGRITWTDGSTYYADSVKGRFTISADNSKNTAYLQMNSLKPEDTAVYYCFGLLEVYDMTFDYWGQGTLVTVSS
B34: variant 5-20 (Fc fusion)
VHH: EVQLVESGGGLVQPGGSLRLSCAASGRTIVPYTMGWFRQAPGKERELVAAISPSAFTEYADSVKGRFTISADNSKNTAYLQMNSLKPEDTAVYYCAARRWGYDWGQGTLVTVSS

Biological target: CV S-protein construct 6 trimer TP31001F (SARS-CoV-2, UniProt P0DTC2 14-1208)
Assay: SPR

Binder	Kd [nM]
B1	2
B2	0.6
B3	1
B4	3.4
B5	0.4
B6	0.3
B7	7.6
B8	1.1
B9	43.8
B10	1070
B11	0.7
B12	1
B13	0.5
B14	1.8
B15	0.9
B16	17.1
B17	0.1
B18	0.7
B19	0.6
B20	498
B21	57.9

Biological target: CV S-protein construct 6 trimer TP31001F (SARS-CoV-2, UniProt P0DTC2 14-1208)
Assay: SPR
Remark: another data set of the same source

Binder	Kd [nM]
B22	0.1
B23	0.6
B24	67.7
B25	0.4
B26	1.3
B27	7.8
B28	0.07
B29	3.5
B30	0.1
B31	0.4
B32	0.7
B33	0.9
B34	1.1
